According to US20100028370A1 (RAPTOR PHARMACEUTICAL, published 2010):

Target: mLRP/LRPTmMegT mini-receptor (fourth ligand binding and transmembrane domains of LRP1 with the C-terminal … (UniProt Q07954 3293-4444))
Assay: cell-based or functional assay

Chain of mLRP/LRPTmMegT mini-receptor (fourth ligand binding and transmembrane domains of LRP1 with the C-terminal … (Q07954 3293-4444): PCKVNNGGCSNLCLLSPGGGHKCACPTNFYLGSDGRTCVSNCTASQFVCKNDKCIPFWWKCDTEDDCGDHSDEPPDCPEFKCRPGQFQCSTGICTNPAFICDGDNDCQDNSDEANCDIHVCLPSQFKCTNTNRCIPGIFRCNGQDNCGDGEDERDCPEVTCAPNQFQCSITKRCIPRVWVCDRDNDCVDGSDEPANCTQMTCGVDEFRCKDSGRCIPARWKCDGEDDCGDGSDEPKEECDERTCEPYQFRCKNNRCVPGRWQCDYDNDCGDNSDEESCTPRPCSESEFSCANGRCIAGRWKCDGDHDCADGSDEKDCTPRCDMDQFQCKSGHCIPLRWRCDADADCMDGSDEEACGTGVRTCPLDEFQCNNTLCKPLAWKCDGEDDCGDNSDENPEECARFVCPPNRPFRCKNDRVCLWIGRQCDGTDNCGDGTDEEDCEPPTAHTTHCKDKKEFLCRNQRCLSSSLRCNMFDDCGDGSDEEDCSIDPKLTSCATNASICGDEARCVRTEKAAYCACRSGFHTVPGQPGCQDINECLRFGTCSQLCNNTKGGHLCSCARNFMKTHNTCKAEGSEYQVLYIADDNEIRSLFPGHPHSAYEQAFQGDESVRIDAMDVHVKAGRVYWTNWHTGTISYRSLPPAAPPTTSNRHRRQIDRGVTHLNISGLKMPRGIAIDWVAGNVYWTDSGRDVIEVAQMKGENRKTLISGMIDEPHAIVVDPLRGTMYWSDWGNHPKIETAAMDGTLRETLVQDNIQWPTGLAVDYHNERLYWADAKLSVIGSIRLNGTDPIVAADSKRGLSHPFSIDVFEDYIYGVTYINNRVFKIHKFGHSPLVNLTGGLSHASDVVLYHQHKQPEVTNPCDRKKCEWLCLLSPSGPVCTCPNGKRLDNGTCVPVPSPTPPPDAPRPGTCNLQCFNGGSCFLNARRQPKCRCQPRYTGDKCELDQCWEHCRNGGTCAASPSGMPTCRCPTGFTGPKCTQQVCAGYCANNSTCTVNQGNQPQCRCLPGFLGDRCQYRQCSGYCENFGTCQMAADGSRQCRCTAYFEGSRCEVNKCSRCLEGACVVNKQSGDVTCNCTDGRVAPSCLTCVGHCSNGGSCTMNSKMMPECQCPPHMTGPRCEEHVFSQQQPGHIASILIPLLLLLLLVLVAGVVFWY

ratio of the apical-to-basolateral to the basolateral-to-apical permeability coefficient of 125I-RAP in MEGt-transfected MDCK cells: 460 fold
B1: receptor-associated protein (RAP) (ligand)
chain: YSREKNQPKPSPKRESGEEFRMEKLNQLWEKAQRLHLPPVRLAELHADLKIQERDELAWKKLKLDGLDEDGEKEARLIRNLNVILAKYGLDGKKDARQVTSNSLSGTQEDGLDDPRLEKLWHKAKTSGKFSGEELDKLWREFLHHKEKVHEYNVLLETLSRTEEIHENVISPSDLSDIKGSVLHSRHTELKEKLRSINQGLDRLRRVSHQGYSTEAEFEEPRVIDLWDLAQSANLTDKELEAFREELKHFEAKIEKHNHYQKQLEIAHEKLRHAESVGDGERVSRSREKHALLEGRTKELGYTVKKHLQDLSGRISRARHNEL
